From article PMC5708134

Substrate: CC1=CC(=O)c2ccccc2C1=O
Assay: Chemical redox cycling by DCXR
Type: biochemical, human
Settings: other: redox cycling; quinone varied; 200 μM NADPH fixed; pH 7.0

B1: recombinant human DCXR (Homo sapiens) (protein)
chain: MELFLAGRRVLVTGAGKGIGRGTVQALHATGARVVAVSRTQADLDSLVRECPGIEPVCVDLGDWEATERALGSVGPVDLLVNNAAVALLQPFLEVTKEAFDRSFEVNLRAVIQVSQIVARGLIARGVPGAIVNVSSQCSQRAVTNHSVYCSTKGALDMLTKVMALELGPHKIRVNAVNPTVVMTSMGQATWSDPHKAKTMLNRIPLGKFAEVEHVVNAILFLLSDRSGMTTGSTLPVEGGFWAC
Which Km does the source give for B1 here?
The Km was 365.80 µM.

What about the kcat of the same protein?
Its kcat is 0.022 s⁻¹.

And the kcat/Km?
Its kcat/Km is 66.7 M⁻¹ s⁻¹.
